B1: ESR2 (parent)
chain: KSCQACRLRKCYEVGMVKCGSRRE
B2: MLH1 (parent)
chain: YAHQMVRTDSREQKLDAFLQPLSK

94 variants from the supplement of paper PMC10567573 can be followed below.
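Also: lentivirally expressed fusions sorted by FACS into six bins by GFP to DsRed ratio, PSI derived from sequencing read proportions per bin multiplied by bin number.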

In one data set the parent is B1. Briefly: protein stability index of a GFP-peptide fusion (GPS, HEK-293T) (PSI 1-6); higher = more stable. The settings on record: c terminus: a fixed tail appended.
As for KSGQACRLRKCYEVGMVKCGSRRE [C3G], the protein stability index turned out to be 2.97. Same read-out and setting: in the case of KSCQHCRLRKCYEVGMVKCGSRRE [A5H] it was 2.15. The same measure, in the same setting: in the case of KSCQRCRLRKCYEVGMVKCGSRRE [A5R] it was 3.08; in that of KSCQACRLRKCYDVGMVKCGSRRE [E13D], 1.88. For KSCQAWRLRKCYEVGMVKCGSRRE [C6W], the protein stability index was 2. Still for that read-out and setting: in the case of KSCQAMRLRKCYEVGMVKCGSRRE [C6M] it was 2.44; in that of KSCQACRLRKCYEVGMVKCGSRRS [E24S], 1.79; in that of KSCQACRLRKCYEVGMVKTGSRRE [C19T], 2.81.

Turning to KSCQACRLRKCYEVGMVKWGSRRE [C19W], the protein stability index was 3.71. On to KSCQACRLRKCYEVGMVNCGSRRE [K18N], for which the protein stability index was determined as 2.39. Still for that read-out and setting: in the case of KSCQACRLRKCYEVGMVCCGSRRE [K18C] it was 2.16. Still for that read-out and setting: in the case of KSCQACRLRKCYEVGMVKCGSMRE [R22M] it was 2.21; in that of KSCQACRLRKCYEVGMVKCGSCRE [R22C], 3.45; in that of KSCQACRLRKCYEEGMVKCGSRRE [V14E], 1.9. As to KSCQACRLRKHYEVGMVKCGSRRE [C11H], the protein stability index came out at 1.74. On the same count and under the same terms, in the case of RSCQACRLRKCYEVGMVKCGSRRE [K1R] it was 2.22.

Regarding KSCQACRLRYCYEVGMVKCGSRRE [K10Y], the protein stability index was 1.79. Regarding KSCQACRLRDCYEVGMVKCGSRRE [K10D], the protein stability index was determined as 1.49.

With KSCQACRLRKCGEVGMVKCGSRRE [Y12G], the protein stability index was determined as 2.36. Same read-out and setting: then KSCQACRLRKCFEVGMVKCGSRRE [Y12F], with 1.77; and KSCQACRNRKCYEVGMVKCGSRRE [L8N], with 2.74. For the variant KSCQACRLRKCYEVGMVKCGRRRE [S21R], the protein stability index came out at 2.09.

On to KSCQACRLRKCYEVGMVKCGYRRE [S21Y], for which the protein stability index came to 1.76. In the case of KSCQACRLRKCYEVGMKKCGSRRE [V17K], the protein stability index was found to be 2.54. Still for that read-out and setting: then KSCQACRLRKCYEVGMPKCGSRRE [V17P], with 1.82; and KSCQACRLRKCYEVGMNKCGSRRE [V17N], with 3.53; and KSCQACRLRKCYEVGMDKCGSRRE [V17D], with 1.6.

The variants in another data set derive from B2. The data set is described as above. The settings on record: c terminus: a fixed tail appended.
Turning to YAHQMVRTNSREQKLDAFLQPLSK [D9N], the protein stability index amounted to 2.53. For YAHQMVRTCSREQKLDAFLQPLSK [D9C], the protein stability index came out at 2.46.

YAHQMVRTISREQKLDAFLQPLSK [D9I]: the protein stability index came out at 2.15. With YAHQMVRTYSREQKLDAFLQPLSK [D9Y], the protein stability index was 1.98. Still for that read-out and setting: then YAHQMVRTMSREQKLDAFLQPLSK [D9M], with 2.49; and YAHQMVRTPSREQKLDAFLQPLSK [D9P], with 2.29; and YAHQMVRTLSREQKLDAFLQPLSK [D9L], with 2.15. Consider YAHQMVRTTSREQKLDAFLQPLSK [D9T], for which the protein stability index came to 1.99. As for YAHQMVRTQSREQKLDAFLQPLSK [D9Q], the protein stability index is 2.7. Same read-out and setting: then YAHQMVRTWSREQKLDAFLQPLSK [D9W], with 1.8. Consider YAHQMVRTESREQKLDAFLQPLSK [D9E], for which the protein stability index worked out at 2.95. On the same count and under the same terms, in the case of YAHQMVRTSSREQKLDAFLQPLSK [D9S] it was 2.54; in that of YAHQMVRTASREQKLDAFLQPLSK [D9A], 2.18; in that of YAHQMVRTVSREQKLDAFLQPLSK [D9V], 1.89. Consider YAHQMVRTRSREQKLDAFLQPLSK [D9R], for which the protein stability index came out at 2.54. The same measure, in the same setting: then YAHQMVRTHSREQKLDAFLQPLSK [D9H], with 2.75; and AAHQMVRTDSREQKLDAFLQPLSK [Y1A], with 3.48; and MAHQMVRTDSREQKLDAFLQPLSK [Y1M], with 3.11. With KAHQMVRTDSREQKLDAFLQPLSK [Y1K], the protein stability index came out at 3.88. Consider SAHQMVRTDSREQKLDAFLQPLSK [Y1S], for which the protein stability index amounted to 3.88. The same measure, in the same setting: then RAHQMVRTDSREQKLDAFLQPLSK [Y1R], with 3.12.

Regarding TAHQMVRTDSREQKLDAFLQPLSK [Y1T], the protein stability index worked out at 3.87. On to CAHQMVRTDSREQKLDAFLQPLSK [Y1C], for which the protein stability index stood at 1.59.

Consider QAHQMVRTDSREQKLDAFLQPLSK [Y1Q], for which the protein stability index amounted to 3.97.

Regarding NAHQMVRTDSREQKLDAFLQPLSK [Y1N], the protein stability index amounted to 2.95. With IAHQMVRTDSREQKLDAFLQPLSK [Y1I], the protein stability index came out at 3.38. Take DAHQMVRTDSREQKLDAFLQPLSK [Y1D]: the protein stability index was 4.12. Turning to FAHQMVRTDSREQKLDAFLQPLSK [Y1F], the protein stability index is 2.12. With WAHQMVRTDSREQKLDAFLQPLSK [Y1W], the protein stability index came to 2.66. Same read-out and setting: then LAHQMVRTDSREQKLDAFLQPLSK [Y1L], with 3.16. Same read-out and setting: then HAHQMVRTDSREQKLDAFLQPLSK [Y1H], with 3.6.

For GAHQMVRTDSREQKLDAFLQPLSK [Y1G], the protein stability index was found to be 3.87.

Take YRHQMVRTDSREQKLDAFLQPLSK [A2R]: the protein stability index came out at 3.12. On the same count and under the same terms, in the case of YMHQMVRTDSREQKLDAFLQPLSK [A2M] it was 3.12; in that of YHHQMVRTDSREQKLDAFLQPLSK [A2H], 1.8. With YCHQMVRTDSREQKLDAFLQPLSK [A2C], the protein stability index was found to be 2.09. Same read-out and setting: in the case of YTHQMVRTDSREQKLDAFLQPLSK [A2T] it was 2.55; in that of YYHQMVRTDSREQKLDAFLQPLSK [A2Y], 2.39; in that of YDHQMVRTDSREQKLDAFLQPLSK [A2D], 4.03. Take YGHQMVRTDSREQKLDAFLQPLSK [A2G]: the protein stability index amounted to 3.19. Same read-out and setting: then YSHQMVRTDSREQKLDAFLQPLSK [A2S], with 2.82. In the case of YQHQMVRTDSREQKLDAFLQPLSK [A2Q], the protein stability index is 2.74. The same measure, in the same setting: then YLHQMVRTDSREQKLDAFLQPLSK [A2L], with 2.84. On the same count and under the same terms, then YVHQMVRTDSREQKLDAFLQPLSK [A2V], with 1.93; and YNHQMVRTDSREQKLDAFLQPLSK [A2N], with 3.54. On the same count and under the same terms, in the case of YAHQFVRTDSREQKLDAFLQPLSK [M5F] it was 2.34; in that of YAHQEVRTDSREQKLDAFLQPLSK [M5E], 3.31; in that of YAHQRVRTDSREQKLDAFLQPLSK [M5R], 2.59. As for YAHQKVRTDSREQKLDAFLQPLSK [M5K], the protein stability index amounted to 2.98.

For YAHQDVRTDSREQKLDAFLQPLSK [M5D], the protein stability index is 3.34. Same read-out and setting: then YAHQLVRTDSREQKLDAFLQPLSK [M5L], with 2.49; and YAHQNVRTDSREQKLDAFLQPLSK [M5N], with 3.16; and YAHQHVRTDSREQKLDAFLQPLSK [M5H], with 2.53. For YAHQPVRTDSREQKLDAFLQPLSK [M5P], the protein stability index was found to be 2.57.

With YAHQSVRTDSREQKLDAFLQPLSK [M5S], the protein stability index amounted to 3.02. On to YAHQYVRTDSREQKLDAFLQPLSK [M5Y], for which the protein stability index worked out at 2.43. Take YAHQGVRTDSREQKLDAFLQPLSK [M5G]: the protein stability index is 2.63.

Regarding YAHQMVRTDSRWQKLDAFLQPLSK [E12W], the protein stability index is 1.6. The same measure, in the same setting: then YAHQMVRTDSRRQKLDAFLQPLSK [E12R], with 2.53.

For YAHQMVRTDSRGQKLDAFLQPLSK [E12G], the protein stability index came to 2.2. In the case of YAHQMVRTDSRMQKLDAFLQPLSK [E12M], the protein stability index was found to be 1.87. Still for that read-out and setting: in the case of YAHQMVRTDSRAQKLDAFLQPLSK [E12A] it was 2.37; in that of YAHQMVRTDSRVQKLDAFLQPLSK [E12V], 2.42; in that of YAHQMVRTDSRSQKLDAFLQPLSK [E12S], 2.32. On the same count and under the same terms, in the case of YAHQMVRTDSRNQKLDAFLQPLSK [E12N] it was 2.37. On the same count and under the same terms, in the case of YAHQMVRTDSRHQKLDAFLQPLSK [E12H] it was 2.34. With YAHQMVRTDSRPQKLDAFLQPLSK [E12P], the protein stability index amounted to 2.32.
